# Experimental data reported in US20040071698A1 (UAB RESEARCH FOUNDATION, published 2004).
# Assays:
# [1] = biological target: T1, wild-type EGFR on U87MG.wtEGFR human glioma cells (UniProt P00533 25-1210, limits assumed); assay: FACS on U87MG.wtEGFR cells, culture medium, anti-alpha tubulin and FITC anti-rat detection
# T1 construct: whole, on cells; Estimated at >3x10^6 EGFR per cell; also called native full length epidermal growth factor receptor
# Method: (§1) The cells, U87MG, U87MG.wtEGFR and U87MG.AEGFR were incubated with culture medium, culture medium from pSECTAG or p6.34 for 30 min at 4° C. The cells were washed, then incubated with rat anti-alpha tubulin followed by FITC-labeled anti-rat antibody.
# (§2) The EGFR has three major domains, intracellular, transmembrane and extracellular, any of which may serve as the binding site for clone p6.34. To examine whether the scFv binds to the extracellular portion of the receptor, a FACS analysis was used for this determination. For this assay, culture medium collected from U87MG.pSECTAG or U87MG.pSECTAG.6.34.A8 was allowed to interact with the cell surface of 3 different human glioma sublines; U87MG, U87MG.wtEGFR and U87MG.AEGFR (provided by Dr. H-J. Su Huang, UCSD).
# [2] = biological target: T2, truncated EGFR, EGFRvIII, on U87MG.deltaEGFR human glioma cells (UniProt P00533 25-1210); assay: FACS on U87MG.deltaEGFR cells, culture medium, anti-alpha tubulin and FITC anti-rat detection
# T2 construct: whole, on cells; also called U87MG.AEGFR; truncated and/or mutated epidermal growth factor receptor
# Method: as §1, §2
binder,measurement,setting,value
"secretory anti-EGFR scFv clone 6 secreted by stably transfected U87MG.6.34.A8 cells (clone p6.34) (scFv, not shown: small tags and cut ends, The scFv insert was moved from pSEX81 as a Bpu1102I/NotI fragment behind an Ig kappa leader; also called scFv p6.34; clone p6.34 scFv) scFv: EVQLVESGGGLVQPGGSLRLSCSASGFTFSSYAMHWVRQAPGKGLEYVSAISSNGGSTYYADSVKGRFTISRDNSKNTLYLQMSSLRAEDTAVYYCVKDVGGSSWYWADYFDYWGQGTLVTVSSGSASAPKLEEGEFSEARVQSVLTQPPSLSVSPGQTASITCSGDKLGDKYASWYQQKPGQSPVLVIYQDRKRPSGIPERFSGSNSGNTATLTISGTQAMDEADYYCQAWDSSTPYVFGTGTKVTVLGQPKANPTVTLFPPSSAAA",binding result,[1],binds
same,binding result,[2],binds
